Reference: US20230382991A1 (COMMISSARIAT A L ENERGIE ATOMIQUE ET AUX ENERGIES …, published 2023)

B1: BF14 humanized antagonist antibody of Family AB2 (antibody, V domains shown)
VH: QVQLVESGGGVVQPGRSLRLSCAASGFTFSDYGMHWVRQAPGKGLEWVAYISSGSSTSYYADTVKGRFTISRDDSKNTLYLQMNSLRAEDTAVYYCARPGSNWDVYYAMDYWGQGTLVTVSS
VL: DIQLTQSPSSLSASVGDRVTITCRASQSVSTSSYSYMHWYQQKPGKAPKLLIKNASNLESGVPSRFSGSGSGTDFTLTISSLQPEDFATYYCQHSWEIPFTFGPGTKVDIK
B2: B1.2.2 monoclonal antibody (antibody, V domains shown)
VH: EVQLVESGGGLVKPGGSLKLSCAASGFTFSDYGMHWVRQAPEKGLEWVAYISSGSSTSYYADTVKGRFTISRDDAKNTLFLQMTSLRSEDTAMYYCARPGSNWDVYYAMDYWGQGTSVTVSS
VL: DIVLTQSPASLAVSLGQRATISCRASQSVSTSSYSYMHWYQQKPGQPPKLLIKNASNLESGVPARFSGSGSGTDFTLNIHPVEEEDTATYYCQHSWEIPFTFGGGTKLEIK
notes: Mouse monoclonal antibody purified from hybridoma supernatant (immunisation with mLILRB1.2-Fc); also called B1.2.2 mAb; clone 20G10
B3: B1.2.1 monoclonal antibody (antibody, V domains shown)
VH: EVQLVESGGGLVQPKGSLKLSCAASGFTFNTHAMHWVRQAPGKGLEWVARIRSKSSNYATFYADSVKDRFTISRDDSQSMLYLQMNNLKTEDTAIYFCVMVYYGNSPYYSMDYWGQGTSVTVSS
VL: NIVMTQSPKSMSMSVGERVTLSCKASENVGTYVSWYQQKPEQSPKLLIYGASNRYTGVPDRFTGSGSATDFTLIINNIQAEDLADYHCGQSYSSPLTFGAGTKLELK
notes: Mouse monoclonal antibody purified from hybridoma supernatant (immunisation with mLILRB1.2-Fc); also called B1.2.1 mAb

What was measured:
[1] = target: T1, human LILRB1 expressed on stably transduced CHO cells (human, UniProt Q8NHL6 24-650); assay: flow cytometry, same method as FIG. 1B (CHO cells expressing human LILRB1)
T1 construct: whole, on cells; also called hLILRB1; CHO hLILRB1 cell line
T1 sequence (Q8NHL6 24-650): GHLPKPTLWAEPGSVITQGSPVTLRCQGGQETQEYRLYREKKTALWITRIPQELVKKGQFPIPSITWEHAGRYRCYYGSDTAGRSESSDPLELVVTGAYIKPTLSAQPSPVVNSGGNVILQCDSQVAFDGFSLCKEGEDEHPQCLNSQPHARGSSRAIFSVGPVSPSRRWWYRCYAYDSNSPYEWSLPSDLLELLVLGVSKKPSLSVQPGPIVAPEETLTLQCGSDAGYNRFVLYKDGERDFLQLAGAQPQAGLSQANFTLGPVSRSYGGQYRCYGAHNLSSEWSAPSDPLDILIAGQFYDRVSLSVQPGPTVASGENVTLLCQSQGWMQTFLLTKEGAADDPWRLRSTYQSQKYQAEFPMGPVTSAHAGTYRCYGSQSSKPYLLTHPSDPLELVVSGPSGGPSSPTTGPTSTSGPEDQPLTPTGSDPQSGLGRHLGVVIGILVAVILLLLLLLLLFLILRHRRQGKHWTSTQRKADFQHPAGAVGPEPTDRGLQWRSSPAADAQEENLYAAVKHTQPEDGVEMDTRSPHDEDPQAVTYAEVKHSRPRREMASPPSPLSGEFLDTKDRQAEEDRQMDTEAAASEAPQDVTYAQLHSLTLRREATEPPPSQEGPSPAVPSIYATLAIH

[2] = target: T2, recombinant human LILRA5-Fc fusion protein (human, UniProt A6NI73 42-268); assay: EIA on hLILR-Fc captured by goat anti-human Ig on the plate; AChE-labelled goat anti-mouse antibody; absorbance (axis printed 'DO 141nm'); no blank curve on the sheet
T2 construct: not shown: Fc part of the fusion bought from R&D Systems
T2 sequence (A6NI73 42-268): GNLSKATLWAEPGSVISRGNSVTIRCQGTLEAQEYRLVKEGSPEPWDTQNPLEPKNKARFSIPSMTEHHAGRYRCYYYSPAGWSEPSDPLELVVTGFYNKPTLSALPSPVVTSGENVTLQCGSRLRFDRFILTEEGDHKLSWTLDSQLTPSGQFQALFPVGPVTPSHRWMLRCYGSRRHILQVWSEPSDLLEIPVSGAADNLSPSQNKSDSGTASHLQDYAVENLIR

[3] = target: T3, recombinant human LILRA4-Fc fusion protein (human, UniProt P59901 24-446); assay: as above
T3 construct: not shown: Fc part of the fusion bought from R&D Systems
T3 sequence (P59901 24-446): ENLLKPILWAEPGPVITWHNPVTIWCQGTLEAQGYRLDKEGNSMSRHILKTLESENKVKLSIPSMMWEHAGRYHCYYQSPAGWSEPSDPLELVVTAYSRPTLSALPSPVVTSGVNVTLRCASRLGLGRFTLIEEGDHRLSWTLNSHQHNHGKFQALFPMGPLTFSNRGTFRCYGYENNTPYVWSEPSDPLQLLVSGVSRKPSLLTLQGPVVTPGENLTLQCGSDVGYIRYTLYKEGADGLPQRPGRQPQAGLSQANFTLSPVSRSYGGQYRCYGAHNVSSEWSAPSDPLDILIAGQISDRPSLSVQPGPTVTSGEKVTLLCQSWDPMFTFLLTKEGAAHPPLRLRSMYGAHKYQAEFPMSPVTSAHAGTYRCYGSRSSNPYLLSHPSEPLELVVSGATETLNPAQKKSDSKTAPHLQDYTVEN

[4] = target: T4, recombinant human LILRB4-Fc fusion protein (human, UniProt Q8NHJ6 22-259); assay: as above
T4 construct: not shown: Fc part of the fusion bought from R&D Systems

[5] = target: T5, recombinant human LILRB3-Fc fusion protein (human, UniProt O75022 24-443); assay: as above
T5 construct: not shown: Fc part of the fusion bought from R&D Systems
T5 sequence (O75022 24-443): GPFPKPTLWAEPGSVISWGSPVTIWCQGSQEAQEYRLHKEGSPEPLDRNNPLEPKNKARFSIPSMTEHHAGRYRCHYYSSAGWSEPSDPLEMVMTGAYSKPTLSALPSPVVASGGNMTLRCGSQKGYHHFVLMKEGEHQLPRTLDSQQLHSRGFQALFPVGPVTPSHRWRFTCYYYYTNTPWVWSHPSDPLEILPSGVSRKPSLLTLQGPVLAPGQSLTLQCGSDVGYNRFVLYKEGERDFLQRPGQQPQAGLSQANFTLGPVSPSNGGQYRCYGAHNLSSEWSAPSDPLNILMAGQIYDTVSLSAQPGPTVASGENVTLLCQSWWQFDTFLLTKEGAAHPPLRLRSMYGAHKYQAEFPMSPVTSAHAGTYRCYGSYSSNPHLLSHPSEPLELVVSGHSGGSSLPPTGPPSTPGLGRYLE

[6] = target: T6, recombinant human LILRA2-Fc fusion protein (human, UniProt Q8N149 24-449); assay: as above
T6 construct: not shown: Fc part of the fusion bought from R&D Systems
T6 sequence (Q8N149 24-449): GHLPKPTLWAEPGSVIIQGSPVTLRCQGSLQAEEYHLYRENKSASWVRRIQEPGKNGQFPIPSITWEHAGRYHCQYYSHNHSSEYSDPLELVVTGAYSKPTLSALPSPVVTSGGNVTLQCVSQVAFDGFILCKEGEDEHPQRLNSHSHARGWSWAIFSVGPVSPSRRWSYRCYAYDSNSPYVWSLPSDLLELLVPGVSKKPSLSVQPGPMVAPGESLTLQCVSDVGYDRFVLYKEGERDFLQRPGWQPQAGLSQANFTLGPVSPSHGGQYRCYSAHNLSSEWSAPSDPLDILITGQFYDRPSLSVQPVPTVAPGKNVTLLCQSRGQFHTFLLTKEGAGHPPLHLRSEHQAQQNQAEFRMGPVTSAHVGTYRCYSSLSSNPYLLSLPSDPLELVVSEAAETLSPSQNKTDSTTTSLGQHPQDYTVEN

[7] = target: T7, recombinant human LILRB5-Fc fusion protein (human, UniProt O75023 24-458); assay: as above
T7 construct: not shown: Fc part of the fusion bought from R&D Systems
T7 sequence (O75023 24-458): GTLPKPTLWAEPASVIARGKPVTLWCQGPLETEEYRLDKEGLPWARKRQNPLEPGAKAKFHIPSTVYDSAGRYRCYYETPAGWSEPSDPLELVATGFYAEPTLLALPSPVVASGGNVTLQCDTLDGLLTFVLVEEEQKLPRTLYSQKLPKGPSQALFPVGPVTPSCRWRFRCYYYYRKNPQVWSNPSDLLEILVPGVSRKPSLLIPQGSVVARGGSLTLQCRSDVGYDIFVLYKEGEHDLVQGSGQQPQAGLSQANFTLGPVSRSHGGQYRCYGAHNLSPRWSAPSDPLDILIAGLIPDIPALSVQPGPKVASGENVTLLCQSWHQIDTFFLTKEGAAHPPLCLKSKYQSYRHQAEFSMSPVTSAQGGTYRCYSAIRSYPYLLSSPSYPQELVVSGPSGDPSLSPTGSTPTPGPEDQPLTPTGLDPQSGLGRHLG

[8] = target: T8, recombinant human LILRB1-Fc fusion protein (human, UniProt Q8NHL6 24-458); assay: biolayer interferometry (ForteBio), mAb on anti-mouse Fc sensor, LILR-Fc in solution, 1:1 global fit
T8 construct: hLILR-Fc purchased from R&D Systems; also called hLILRB1-Fc; hLILRB1; not shown: Fc part of the fusion bought from R&D Systems; detected with anti-human IgG
T8 sequence (Q8NHL6 24-458): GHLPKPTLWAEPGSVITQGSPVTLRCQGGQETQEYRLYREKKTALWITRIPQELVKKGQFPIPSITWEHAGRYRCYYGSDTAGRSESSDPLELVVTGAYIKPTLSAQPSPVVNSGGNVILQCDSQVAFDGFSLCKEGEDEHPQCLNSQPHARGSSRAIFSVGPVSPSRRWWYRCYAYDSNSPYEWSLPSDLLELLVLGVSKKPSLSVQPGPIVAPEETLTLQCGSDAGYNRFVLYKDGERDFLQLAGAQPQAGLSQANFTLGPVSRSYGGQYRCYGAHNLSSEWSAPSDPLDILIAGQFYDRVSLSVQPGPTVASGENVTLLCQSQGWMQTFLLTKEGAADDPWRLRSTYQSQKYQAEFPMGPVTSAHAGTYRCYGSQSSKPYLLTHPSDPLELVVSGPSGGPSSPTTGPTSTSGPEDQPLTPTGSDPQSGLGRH

[9] = target: T9, recombinant human LILRA3-Fc fusion protein (human, UniProt Q8N6C8 24-439); assay: as above
T9 construct: hLILR-Fc purchased from R&D Systems; also called hLILRA3; hLILRA3-Fc; not shown: Fc part of the fusion bought from R&D Systems
T9 sequence (Q8N6C8 24-439): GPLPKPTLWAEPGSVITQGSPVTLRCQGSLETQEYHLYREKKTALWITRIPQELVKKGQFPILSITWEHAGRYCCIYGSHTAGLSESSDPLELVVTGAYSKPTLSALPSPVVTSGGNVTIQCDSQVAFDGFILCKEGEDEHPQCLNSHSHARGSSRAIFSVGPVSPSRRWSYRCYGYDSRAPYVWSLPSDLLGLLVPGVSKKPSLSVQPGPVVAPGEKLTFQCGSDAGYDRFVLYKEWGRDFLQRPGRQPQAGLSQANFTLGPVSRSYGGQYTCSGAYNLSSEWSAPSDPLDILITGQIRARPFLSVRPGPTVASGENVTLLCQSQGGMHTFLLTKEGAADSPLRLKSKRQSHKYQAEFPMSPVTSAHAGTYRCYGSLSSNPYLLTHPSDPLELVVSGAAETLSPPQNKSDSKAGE

[10] = target: T10, cynomolgus macaque LILRB1.2-Fc fusion protein (cynomolgus macaque; human); assay: as above
T10 construct: extracellular domain; Produced in HEK293T cells; also called mLILRB1.2; mLILRB1.2-Fc

[11] = target: T11, cynomolgus macaque LILRB1.1-Fc fusion protein (cynomolgus macaque; human); assay: as above
T11 construct: extracellular domain; Produced in HEK293T cells; also called mLILRB1.1; mLILRB1.1-Fc

[12] = target: T12, recombinant human LILRA1-Fc fusion protein (human, UniProt O75019 17-461); assay: as above
T12 construct: hLILR-Fc purchased from R&D Systems; also called hLILRA1; hLILRA1-Fc; not shown: Fc part of the fusion bought from R&D Systems; captured by anti-human immunoglobulin
T12 sequence (O75019 17-461): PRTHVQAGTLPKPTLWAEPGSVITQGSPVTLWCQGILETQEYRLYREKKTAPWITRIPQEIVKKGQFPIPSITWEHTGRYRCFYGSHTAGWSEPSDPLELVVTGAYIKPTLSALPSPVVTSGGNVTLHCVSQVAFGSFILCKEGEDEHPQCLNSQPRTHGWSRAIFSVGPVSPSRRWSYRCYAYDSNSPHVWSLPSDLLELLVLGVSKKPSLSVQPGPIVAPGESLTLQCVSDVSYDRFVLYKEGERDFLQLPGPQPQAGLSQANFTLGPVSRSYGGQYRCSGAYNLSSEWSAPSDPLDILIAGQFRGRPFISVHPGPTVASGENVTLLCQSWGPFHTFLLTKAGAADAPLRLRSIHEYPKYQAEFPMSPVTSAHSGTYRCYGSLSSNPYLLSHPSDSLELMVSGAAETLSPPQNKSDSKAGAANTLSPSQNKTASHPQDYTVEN

[13] = target: T13, cynomolgus macaque LILRB2.1-Fc fusion protein (cynomolgus macaque; human); assay: as above
T13 construct: extracellular domain; Produced in HEK293T cells; also called mLILRB2.1; mLILRB2.1-Fc

[14] = target: T14, cynomolgus macaque LILRB2.2-Fc fusion protein (cynomolgus macaque; human); assay: as above
T14 construct: extracellular domain; Produced in HEK293T cells; also called mLILRB2.2; mLILRB2.2-Fc

[15] = target: T15, recombinant human LILRB2-Fc fusion protein (human, UniProt Q8N423 22-457); assay: as above
T15 construct: hLILR-Fc purchased from R&D Systems; also called hLILRB2-Fc; hLILRB2; not shown: Fc part of the fusion bought from R&D Systems; detected with anti-human IgG
T15 sequence (Q8N423 22-457): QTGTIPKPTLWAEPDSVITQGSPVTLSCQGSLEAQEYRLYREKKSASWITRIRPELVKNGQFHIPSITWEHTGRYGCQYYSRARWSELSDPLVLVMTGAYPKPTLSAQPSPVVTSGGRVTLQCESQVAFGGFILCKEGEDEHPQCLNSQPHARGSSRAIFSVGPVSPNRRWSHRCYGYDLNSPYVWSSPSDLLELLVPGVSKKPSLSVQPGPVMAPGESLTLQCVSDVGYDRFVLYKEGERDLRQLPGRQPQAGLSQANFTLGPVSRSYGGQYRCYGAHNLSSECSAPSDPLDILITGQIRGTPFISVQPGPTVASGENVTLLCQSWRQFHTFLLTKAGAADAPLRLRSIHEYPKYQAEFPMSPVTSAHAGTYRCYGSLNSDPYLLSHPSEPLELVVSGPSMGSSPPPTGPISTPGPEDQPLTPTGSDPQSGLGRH

Row | Binder | binding result [1] | binding result [2] | binding result [3] | binding result [4] | binding result [5] | binding result [6] | binding result [7] | Kd [8] | Kd [9] | Kd [10] | Kd [11] | Kd [12] | Kd [13] | Kd [14] | Kd [15]
1 | B1 | binds |  |  |  |  |  |  |  |  |  |  |  |  |  | 
2 | B2 |  | no binding (tested: 10 µg/ml) | no binding (tested: 10 µg/ml) | no binding (tested: 10 µg/ml) | no binding (tested: 10 µg/ml) | no binding (tested: 10 µg/ml) | no binding (tested: 10 µg/ml) | 0.87 nM | 3.2 nM | 0.12 nM | 3.6 nM | 0.37 nM | 0.48 nM | 0.071 nM | 
3 | B3 |  | no binding (tested: 10 µg/ml) | no binding (tested: 10 µg/ml) | no binding (tested: 10 µg/ml) | no binding (tested: 10 µg/ml) | no binding (tested: 10 µg/ml) | no binding (tested: 10 µg/ml) | 0.53 nM | 1.3 nM | 0.014 nM | 0.0039 nM | 0.73 nM |  | 2.9 nM | 0.14 nM
